The values that follow are results of earlier work, collected in PMC9255719.

“And” between values parts separate entries of the source, which are not always exact repeats. Equal entries are not always repeated. Where two headings read alike, the source gives them in different places.

Data set [1] deals with Albumin-Alexa 568 conjugate (4:1) (UniProt P02770). Put plainly: not stated in this review (data reproduced from ref [155]). To be noted: pH 6; not stated (pH 6 and pH 7.4).
In data set [2] the target is Albumin-Alexa 647 maleimide conjugate (1:1) (UniProt P02770). The description is as above. Conditions: pH 6; not stated (pH 6 and pH 7.4).
Data set [3] concerns the target Albumin-CF-594 maleimide conjugate (dye:albumin 1:3) (UniProt P02770). The description is as above. To be noted: pH 6; not stated (pH 6 and pH 7.4).
In data set [4] the target is Albumin-Texas Red conjugate (1:1) (UniProt P02770). The data set is described as above. To be noted: not stated (pH 6 and pH 7.4).
For data set [5], the target named is Albumin-Texas Red-X conjugate (1:1) (UniProt P02770). Described as above. To be noted: pH 6; not stated (pH 6 and pH 7.4).
In data set [6] the target is Albumin-Texas Red-X conjugate (2:1) (UniProt P02770). Described as above. To be noted: pH 6; not stated (pH 6 and pH 7.4).
Data set [7] addresses Albumin-Texas Red-X conjugate (4:1) (UniProt P02770). Described as above. Conditions: pH 6; not stated (pH 6 and pH 7.4).
For data set [8], the target named is Albumin-Texas Red-X conjugate (5:1) (UniProt P02770). The data set is described as above. Conditions: pH 6; not stated (pH 6 and pH 7.4).
The target of data set [9] is Albumin-fluorescein conjugate (6.4:1) (UniProt P02770). The data set is described as above. To be noted: not stated (pH 6 and pH 7.4).
Data set [10] has as its target Serum albumin, unlabelled ('No dye') (UniProt P02770). The data set is described as above. To be noted: not stated (pH 6 and pH 7.4).
A further data set addresses cubilin (UniProt O60494).
Sequence of UniProt O60494 (O60494 36-3623): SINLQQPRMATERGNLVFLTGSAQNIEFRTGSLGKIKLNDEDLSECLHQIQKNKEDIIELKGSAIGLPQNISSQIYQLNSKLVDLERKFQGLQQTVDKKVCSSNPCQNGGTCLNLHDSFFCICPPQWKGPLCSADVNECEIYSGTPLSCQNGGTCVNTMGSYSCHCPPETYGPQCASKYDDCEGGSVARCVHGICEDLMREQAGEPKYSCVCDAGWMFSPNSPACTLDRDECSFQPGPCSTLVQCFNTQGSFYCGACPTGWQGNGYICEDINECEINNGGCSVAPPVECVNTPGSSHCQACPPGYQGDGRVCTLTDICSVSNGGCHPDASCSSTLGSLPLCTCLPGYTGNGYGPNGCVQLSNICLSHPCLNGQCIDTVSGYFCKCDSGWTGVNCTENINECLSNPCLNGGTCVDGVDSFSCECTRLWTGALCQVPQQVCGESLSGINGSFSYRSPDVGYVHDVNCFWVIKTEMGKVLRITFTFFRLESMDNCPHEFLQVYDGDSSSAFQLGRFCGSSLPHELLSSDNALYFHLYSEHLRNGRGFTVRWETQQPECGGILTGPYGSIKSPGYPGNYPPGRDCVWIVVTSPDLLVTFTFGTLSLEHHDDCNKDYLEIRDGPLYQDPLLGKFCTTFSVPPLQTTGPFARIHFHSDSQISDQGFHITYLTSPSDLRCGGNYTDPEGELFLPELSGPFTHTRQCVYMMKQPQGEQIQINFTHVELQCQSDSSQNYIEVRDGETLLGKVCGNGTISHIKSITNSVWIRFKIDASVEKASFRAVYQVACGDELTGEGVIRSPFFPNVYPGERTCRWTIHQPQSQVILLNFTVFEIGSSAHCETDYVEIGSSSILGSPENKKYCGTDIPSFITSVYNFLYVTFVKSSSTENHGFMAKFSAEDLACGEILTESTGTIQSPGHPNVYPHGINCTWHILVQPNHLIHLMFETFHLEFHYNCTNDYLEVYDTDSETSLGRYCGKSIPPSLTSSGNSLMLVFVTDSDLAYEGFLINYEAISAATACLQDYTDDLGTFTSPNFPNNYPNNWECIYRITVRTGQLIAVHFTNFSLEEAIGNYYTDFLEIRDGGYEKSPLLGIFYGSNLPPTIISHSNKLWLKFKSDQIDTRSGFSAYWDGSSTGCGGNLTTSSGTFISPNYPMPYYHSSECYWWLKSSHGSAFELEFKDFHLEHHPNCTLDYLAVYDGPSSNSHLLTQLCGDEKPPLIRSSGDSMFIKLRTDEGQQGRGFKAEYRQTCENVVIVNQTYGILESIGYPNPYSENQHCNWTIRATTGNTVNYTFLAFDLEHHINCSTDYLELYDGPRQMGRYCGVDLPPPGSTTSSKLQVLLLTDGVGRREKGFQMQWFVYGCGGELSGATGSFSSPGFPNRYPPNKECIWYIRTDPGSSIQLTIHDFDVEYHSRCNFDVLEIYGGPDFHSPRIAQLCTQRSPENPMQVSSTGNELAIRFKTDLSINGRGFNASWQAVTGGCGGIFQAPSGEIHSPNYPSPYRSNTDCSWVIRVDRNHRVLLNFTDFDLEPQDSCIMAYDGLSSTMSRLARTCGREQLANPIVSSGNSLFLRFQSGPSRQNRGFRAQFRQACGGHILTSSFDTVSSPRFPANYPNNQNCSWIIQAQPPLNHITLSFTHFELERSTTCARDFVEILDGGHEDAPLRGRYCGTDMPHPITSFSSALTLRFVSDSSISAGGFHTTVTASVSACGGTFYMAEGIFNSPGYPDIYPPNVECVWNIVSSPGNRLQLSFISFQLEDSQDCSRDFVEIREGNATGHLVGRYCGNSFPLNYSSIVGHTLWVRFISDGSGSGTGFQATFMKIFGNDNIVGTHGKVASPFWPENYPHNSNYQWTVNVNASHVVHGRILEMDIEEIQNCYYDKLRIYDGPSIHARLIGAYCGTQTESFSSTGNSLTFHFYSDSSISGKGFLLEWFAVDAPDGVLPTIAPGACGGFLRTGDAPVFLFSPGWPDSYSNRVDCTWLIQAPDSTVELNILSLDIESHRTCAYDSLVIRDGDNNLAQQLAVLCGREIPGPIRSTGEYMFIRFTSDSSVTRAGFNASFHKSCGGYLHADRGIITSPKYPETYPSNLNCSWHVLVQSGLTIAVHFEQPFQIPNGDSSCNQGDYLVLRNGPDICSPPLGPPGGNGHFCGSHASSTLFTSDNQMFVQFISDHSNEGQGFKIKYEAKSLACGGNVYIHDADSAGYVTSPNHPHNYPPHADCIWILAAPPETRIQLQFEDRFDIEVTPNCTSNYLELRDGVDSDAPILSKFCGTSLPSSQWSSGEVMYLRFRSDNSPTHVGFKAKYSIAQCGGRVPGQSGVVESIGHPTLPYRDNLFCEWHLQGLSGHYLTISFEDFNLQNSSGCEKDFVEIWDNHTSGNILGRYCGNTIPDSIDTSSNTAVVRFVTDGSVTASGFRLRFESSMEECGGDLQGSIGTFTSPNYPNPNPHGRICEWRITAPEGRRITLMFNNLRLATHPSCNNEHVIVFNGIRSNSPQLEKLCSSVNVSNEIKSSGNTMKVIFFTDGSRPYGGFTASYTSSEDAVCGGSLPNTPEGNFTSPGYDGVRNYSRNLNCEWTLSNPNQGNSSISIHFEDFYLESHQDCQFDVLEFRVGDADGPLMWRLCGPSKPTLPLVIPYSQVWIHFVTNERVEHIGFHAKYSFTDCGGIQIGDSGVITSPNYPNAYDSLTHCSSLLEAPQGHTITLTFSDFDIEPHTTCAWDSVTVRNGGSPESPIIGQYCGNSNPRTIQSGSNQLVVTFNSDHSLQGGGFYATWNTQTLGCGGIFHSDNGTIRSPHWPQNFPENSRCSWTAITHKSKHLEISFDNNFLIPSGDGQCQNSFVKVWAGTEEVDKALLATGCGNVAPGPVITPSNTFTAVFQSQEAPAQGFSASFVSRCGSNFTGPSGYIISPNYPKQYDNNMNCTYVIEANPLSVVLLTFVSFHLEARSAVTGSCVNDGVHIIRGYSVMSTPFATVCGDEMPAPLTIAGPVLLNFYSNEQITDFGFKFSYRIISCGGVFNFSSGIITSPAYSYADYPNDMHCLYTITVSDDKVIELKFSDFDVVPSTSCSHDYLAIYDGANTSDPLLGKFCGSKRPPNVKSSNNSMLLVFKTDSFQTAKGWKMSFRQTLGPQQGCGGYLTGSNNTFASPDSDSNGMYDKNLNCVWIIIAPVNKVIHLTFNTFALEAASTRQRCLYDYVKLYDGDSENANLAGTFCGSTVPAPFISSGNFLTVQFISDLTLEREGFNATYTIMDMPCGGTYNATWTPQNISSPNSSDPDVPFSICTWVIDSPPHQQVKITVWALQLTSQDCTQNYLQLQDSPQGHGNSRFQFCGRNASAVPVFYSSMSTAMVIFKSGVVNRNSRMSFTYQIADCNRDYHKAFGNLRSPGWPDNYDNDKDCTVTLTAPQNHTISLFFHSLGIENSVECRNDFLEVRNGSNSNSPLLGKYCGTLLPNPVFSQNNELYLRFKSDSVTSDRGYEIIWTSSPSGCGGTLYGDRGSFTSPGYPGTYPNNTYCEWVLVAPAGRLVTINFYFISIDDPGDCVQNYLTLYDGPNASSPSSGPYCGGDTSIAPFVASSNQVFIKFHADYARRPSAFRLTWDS
In data set [11] the target is FcRn (Rattus norvegicus) (UniProt P13599).
Sequence of UniProt P13599 (P13599 23-298): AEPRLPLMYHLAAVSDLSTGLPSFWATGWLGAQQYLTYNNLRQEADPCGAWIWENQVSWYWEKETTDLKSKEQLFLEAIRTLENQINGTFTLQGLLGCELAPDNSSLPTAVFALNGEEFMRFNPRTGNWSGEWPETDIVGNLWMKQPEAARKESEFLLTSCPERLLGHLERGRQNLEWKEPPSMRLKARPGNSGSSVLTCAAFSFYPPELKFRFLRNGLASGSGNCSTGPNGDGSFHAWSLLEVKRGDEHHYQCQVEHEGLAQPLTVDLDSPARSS
Data set [12] has the same target. This is another data set of the same source.
For data set [13] the target is unchanged. The source holds these as a separate data set.
Data set [14] concerns the target FcRn (Homo sapiens) (UniProt P55899).
Sequence of UniProt P55899 (P55899 24-297): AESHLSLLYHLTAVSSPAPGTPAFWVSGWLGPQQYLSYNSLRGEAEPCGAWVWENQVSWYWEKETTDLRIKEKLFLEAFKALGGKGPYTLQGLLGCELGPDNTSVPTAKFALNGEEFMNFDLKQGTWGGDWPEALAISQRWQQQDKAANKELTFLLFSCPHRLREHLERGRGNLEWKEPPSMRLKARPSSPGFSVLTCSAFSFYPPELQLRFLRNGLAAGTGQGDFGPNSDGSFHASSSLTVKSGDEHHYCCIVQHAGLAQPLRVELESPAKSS
Data set [15] concerns the target FcRn (Rattus norvegicus) (UniProt P13599). The source holds these as a separate data set.
For data set [16] the target is unchanged. The source holds these as a separate data set.
Data set [17] has the same target. The source holds these as a separate data set.
Data set [18] shares this target. The source holds these as a separate data set.
For data set [19] the target is unchanged. The source holds these as a separate data set.
Data set [20] shares this target. The source holds these as a separate data set.
For data set [21] the target is unchanged. This is another data set of the same source.
Data set [22] has the same target. This is another data set of the same source.
For data set [23], the target named is FcRn (Homo sapiens) (UniProt P55899). This is another data set of the same source.
Data set [24] deals with FcRn (Rattus norvegicus) (UniProt P13599). This is another data set of the same source.
Data set [25] has the same target. This is another data set of the same source.
Data set [26] shares this target. This is another data set of the same source.

As to “Neonatal Fc receptor (FcRn), rat (rFcRn)”, the Kd in data set [1] is 17 µM; in data set [2] it was 11 µM; in data set [3], 1500 nM; in data set [4] (pH 6) it was 6 µM; in data set [4] (pH 7.4), 11 µM; in data set [5], 5.4 µM. Moreover, the Kd was 10 µM in [6]; > 40 µM in [7]; > 100 µM in [8]; 69 µM in data set [9] (pH 6); 1 µM in data set [9] (pH 7.4); 11.6 µM in data set [10] (pH 6). In addition, the Kd in data set [10] (pH 7.4) was > 100 µM.
As for albumin (from UniProt P02768), the Kd with cubilin was 630 nM; in the data set with FcRn (Rattus norvegicus) [11], > 100 µM.
Consider albumin (from UniProt P02769), for which the Kd with FcRn (Rattus norvegicus) [12] is > 100 µM.
Consider albumin (from UniProt P02770), for which the Kd in the data set with FcRn (Rattus norvegicus) [13] was 11 µM and 6 µM; in the data set with FcRn (Homo sapiens) [14] it was 1100 nM; in the data set with FcRn (Rattus norvegicus) [15], 11.6 µM; with FcRn (Rattus norvegicus) [16], > 100 µM; with FcRn (Rattus norvegicus) [17] it was 1500 nM; with FcRn (Rattus norvegicus) [18], 17 µM. Further, the Kd was > 40 µM in the data set with FcRn (Rattus norvegicus) [19], 10 µM with FcRn (Rattus norvegicus) [20] and 5.4 µM in the data set with FcRn (Rattus norvegicus) [21].
Turning to albumin (from UniProt P07724), the Kd in the data set with FcRn (Rattus norvegicus) [22] is > 100 µM.
Turning to albumin (from UniProt P08835), the Kd is > 50 µM in the data set with FcRn (Homo sapiens) [23] and > 100 µM with FcRn (Rattus norvegicus) [24].
With albumin (from UniProt P14639), in the data set with FcRn (Rattus norvegicus) [25], the Kd was > 100 µM.
In the case of albumin (from UniProt P49065), in the data set with FcRn (Rattus norvegicus) [26], the Kd was 11.8 µM.

A word on the Kd: it is the free concentration of one partner at which half of the binding sites on the other are occupied at equilibrium, for simple one-to-one binding.
